The text below walks through data of patent US20200317768A1 (published 2020).

The target of assay [1] is T1, soluble mouse FcγRII, His-tagged (mouse, UniProt P08101 30-210, limits assumed).
T1 construct: Captured on the chip by an anti-His antibody
T1 sequence (looked up): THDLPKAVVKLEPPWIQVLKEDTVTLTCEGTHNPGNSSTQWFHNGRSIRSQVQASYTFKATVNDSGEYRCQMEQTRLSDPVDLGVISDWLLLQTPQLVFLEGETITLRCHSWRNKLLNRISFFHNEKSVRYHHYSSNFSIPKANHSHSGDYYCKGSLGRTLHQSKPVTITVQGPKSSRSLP
As to the kind of experiment: SPR, mouse FcgRII-His captured, antigen-antibody complex injected, pH7.4, 25C.

Assay [2] has as its target T2, Cynomolgus monkey latent myostatin (cynomolgus monkey, UniProt Q95J86 25-266; Q95J86 267-375).
T2 construct: Latent form = complex of two propeptides and the mature dimer; also called Cyno latent myostatin
T2 sequence 1: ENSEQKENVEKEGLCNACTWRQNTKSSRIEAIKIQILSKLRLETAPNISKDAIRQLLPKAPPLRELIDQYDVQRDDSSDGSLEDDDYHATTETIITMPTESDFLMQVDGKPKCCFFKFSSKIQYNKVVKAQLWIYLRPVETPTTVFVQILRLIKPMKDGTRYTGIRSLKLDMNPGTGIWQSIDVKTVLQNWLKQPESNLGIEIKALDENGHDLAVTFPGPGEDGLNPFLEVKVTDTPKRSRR
T2 sequence 2: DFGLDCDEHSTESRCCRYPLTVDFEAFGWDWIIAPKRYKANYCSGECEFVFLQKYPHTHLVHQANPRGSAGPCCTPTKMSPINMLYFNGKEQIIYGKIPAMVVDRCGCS
As to the kind of experiment: SPR (BIACORE T200) 37C, pH 5.8, antibody captured by ProA/G.

The target in another assay is T3, Mouse latent myostatin (mouse, UniProt O08689 26-267; O08689 268-376).
T3 construct: Latent form = complex of two propeptides and the mature dimer
T3 sequence 1: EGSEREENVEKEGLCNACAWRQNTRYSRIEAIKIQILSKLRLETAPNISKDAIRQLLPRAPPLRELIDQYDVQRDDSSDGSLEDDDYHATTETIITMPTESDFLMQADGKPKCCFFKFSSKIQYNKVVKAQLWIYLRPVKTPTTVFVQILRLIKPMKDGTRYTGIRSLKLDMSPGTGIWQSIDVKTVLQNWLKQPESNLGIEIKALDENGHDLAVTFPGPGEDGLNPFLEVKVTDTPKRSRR
T3 sequence 2: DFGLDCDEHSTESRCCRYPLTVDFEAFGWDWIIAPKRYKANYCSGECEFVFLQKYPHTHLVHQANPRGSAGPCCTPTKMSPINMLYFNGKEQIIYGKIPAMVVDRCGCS
The description is as above.

In another assay the target is T4, Human latent myostatin (human, UniProt O14793 25-266; O14793 267-375).
T4 construct: also called human myostatin latent form
T4 sequence 1: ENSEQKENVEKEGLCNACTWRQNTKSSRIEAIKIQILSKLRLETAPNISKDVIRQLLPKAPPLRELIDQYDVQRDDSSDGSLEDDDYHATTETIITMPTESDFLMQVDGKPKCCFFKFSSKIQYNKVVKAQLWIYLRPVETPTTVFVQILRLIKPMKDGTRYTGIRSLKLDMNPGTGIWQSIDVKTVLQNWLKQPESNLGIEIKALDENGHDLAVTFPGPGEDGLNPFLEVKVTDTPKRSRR
T4 sequence 2: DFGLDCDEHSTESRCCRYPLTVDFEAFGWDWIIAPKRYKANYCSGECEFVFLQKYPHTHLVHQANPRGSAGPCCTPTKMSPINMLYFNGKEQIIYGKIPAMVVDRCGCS
The description is as above.

B1: MS1032LO06-SG1 (M103205H795-SG1/M103202L889-SK1) (antibody, human IgG1, kappa)
heavy: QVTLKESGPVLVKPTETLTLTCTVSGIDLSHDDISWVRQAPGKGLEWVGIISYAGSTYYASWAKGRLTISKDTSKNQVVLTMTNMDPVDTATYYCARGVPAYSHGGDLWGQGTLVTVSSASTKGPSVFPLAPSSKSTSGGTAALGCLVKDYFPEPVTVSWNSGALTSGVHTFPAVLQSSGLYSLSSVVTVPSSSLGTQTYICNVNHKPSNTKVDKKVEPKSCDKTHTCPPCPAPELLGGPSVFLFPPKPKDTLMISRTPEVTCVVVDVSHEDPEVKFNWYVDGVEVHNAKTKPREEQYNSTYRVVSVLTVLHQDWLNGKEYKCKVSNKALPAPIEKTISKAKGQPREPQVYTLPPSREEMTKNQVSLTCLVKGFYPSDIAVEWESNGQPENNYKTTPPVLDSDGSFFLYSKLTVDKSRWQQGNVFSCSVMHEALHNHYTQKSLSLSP
light: DIVMTQSPATLSLSPGERATLSCTSSQSVYHANWLSWFQQKPGQPPKLLIYWASTLAYGVPSRFSGSGSGTDFTLTISSLQPEDAATYYCAGGYGGGRYAFGQGTKVEIKRTVAAPSVFIFPPSDEQLKSGTASVVCLLNNFYPREAKVQWKVDNALQSGNSQESVTEQDSKDSTYSLSSTLTLSKADYEKHKVYACEVTHQGLSSPVTKSFNRGEC
notes: Anti-latent myostatin antibody
Turning to B1, in assay [1], the “biacore IC binding” value was 1 relative to SG1 (=1.00).

B2: MS_M103205H795-SG1/M103202L889-SK1 (antibody, human IgG1, kappa)
heavy: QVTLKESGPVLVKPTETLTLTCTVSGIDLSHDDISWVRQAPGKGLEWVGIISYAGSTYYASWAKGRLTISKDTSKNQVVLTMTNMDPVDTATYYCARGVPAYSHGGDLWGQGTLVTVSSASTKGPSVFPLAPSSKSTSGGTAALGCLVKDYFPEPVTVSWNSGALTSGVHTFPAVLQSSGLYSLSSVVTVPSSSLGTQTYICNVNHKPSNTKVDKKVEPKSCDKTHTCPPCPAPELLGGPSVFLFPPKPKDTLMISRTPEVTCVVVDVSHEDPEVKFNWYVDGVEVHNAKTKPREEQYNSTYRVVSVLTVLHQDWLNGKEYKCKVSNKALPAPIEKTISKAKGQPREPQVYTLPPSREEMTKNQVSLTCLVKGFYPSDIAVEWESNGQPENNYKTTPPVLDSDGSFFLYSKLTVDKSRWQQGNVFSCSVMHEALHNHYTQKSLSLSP
light: DIVMTQSPATLSLSPGERATLSCTSSQSVYHANWLSWFQQKPGQPPKLLIYWASTLAYGVPSRFSGSGSGTDFTLTISSLQPEDAATYYCAGGYGGGRYAFGQGTKVEIKRTVAAPSVFIFPPSDEQLKSGTASVVCLLNNFYPREAKVQWKVDNALQSGNSQESVTEQDSKDSTYSLSSTLTLSKADYEKHKVYACEVTHQGLSSPVTKSFNRGEC
notes: also called MS1032LO06-SG1
For orientation: Kd means the equilibrium constant for the complex coming apart. On to B2, for which the Kd in assay [2] turned out to be 0.0259 µM; with Mouse latent myostatin, 0.0226 µM; with Human latent myostatin, 0.034 µM.
